Source: patent US20130078247A1 (Boehringer Ingelheim, published 2013)
Where a chain is given by its changes, count along the chain named.

B1: DLLBII129A03 (VHH)
VHH: EVQLVESGGGLVQAGGSLRLSCAASGRTFSSYAMAWFRQAPGKEREYVAAIRWSGGTAYYADSVQGRFTISRDNAKNTVYLQMNSLRPEDTAVYYCANRAPDTRLRPYLYDYWGQGTQVTVSS
notes: not shown: C-terminal c-myc tag and (His)6 tag
B2: DLLBII129E03 (VHH)
VHH: B1 VHH with E44D, R87K, R106A
B3: DLLBII129H05 (VHH)
VHH: B1 VHH with F37Y, Q39L, R87K, R106G
B4: DLLBII129G09 (VHH)
VHH: B1 VHH with F37Y, G56E, R87K, R106E, Y112H
B5: DLLBII129H04 (VHH)
VHH: B1 VHH with G8R, R87K, R106E, Y112H
B6: DLLBII129B02 (VHH)
VHH: B1 VHH with R19S, F37Y, R87K, R106E, L109E, Y112H
B7: DLLBII129E07 (VHH)
VHH: B1 VHH with A23S, F37Y, A61P, R87K, R106A, L109E, Y112H
B8: DLLBII129H02 (VHH)
VHH: B1 VHH with F37Y, R87K, L109E
B9: DLLBII129D01 (VHH)
VHH: B1 VHH with G66S, S71T, R87K, R106E, Y112H
B10: DLLBII129G10 (VHH)
VHH: B1 VHH with F37Y, G66S, R87K, R106E, L109E, Y112H
B11: DLLBII112A03 (VHH)
VHH: EVQLVESGGGLVQPGGSLRLSCAASGIRFSINGMGWYRQAPGKQREAVATITRGGIRDYTDSVKGRFTISRDIARNTVYLQMNNLKPEDSAVYYCNIDIYWGRGTQVTVSS
notes: also called DLLBII112A3; not shown: C-terminal c-myc and His6 tags
B12: DLLBII101F01 (VHH)
VHH: EVQLVESGGGLVQAGGSLRLSCAASGRTFSNYAMGWFRQAPGKEREFVAAISWSGGDTYYADSVKGRFTISRDNAKNTVCLQMNSLKPEDTAVYYCAASFQSGAAPGANFYDYWGQGTQVTVSS
notes: also called DLLBII101F1; not shown: C-terminal c-myc and His6 tags
B13: DLLBII80E08 (VHH)
VHH: EVQLVESGGGLVQAGGSLTLSCAASGGTFTTYAMGWFRQAPGKEREFVAAVSRFGVSWDYADSVKGRFTISRDNTANTLKLRMNSLKADDTAVYYCAAGGRSFLPFVPAYWGQGTQVTVSS
notes: also called DLLBII80E8; not shown: C-terminal c-myc and His6 tags
B14: DLLBII104B05 (VHH)
VHH: EVQLVESGGGSVQAGGSLRLSCAASGSISRIDVMAWYRQAPGKERELVASISSGGSTNYADSVKGRFTISREYFKNMMYLQMNSLKFEDTAVYYCNADSRRGGVGNFFRSWGQGTQVTVSS
notes: also called DLLBII104B5; DLLBII1040B05; not shown: C-terminal c-myc and His6 tags
B15: DLLBII101H09 (VHH)
VHH: EVQLVESGGGLVQPGGSLRLSCAASGFTLGYYTIVWFRQAPGKERKGVSCISSRDGSRYYADSVKGRFTISRDNAKNTVYLRMNSLKPEDTAVYYCAAGPDCSSYDYWGQGTQVTVSS
notes: also called DLLBII101H9; DLL1BII101H09; not shown: C-terminal c-myc and His6 tags
B16: DLLBII112E07 (VHH)
VHH: EVQLVESGGGLVQAGGSLRLSCAASGRTVRSYATGWFRQAPGKEREFVAALRWSIGSIASVYYDDSVKGRFTISGDNAENTVYLQMNALKPEDTAIYYCASTTRGRYSALSASAYDYWGQGTQVTVSS
notes: also called DLLBII112E7; not shown: C-terminal c-myc and His6 tags
B17: DLLBII104A03 (VHH)
VHH: EVQLVESGGGLVQAGGSLRLSCAASGDIPRIAAMGWYRQAPGKQRELVATVSNAATTRYADSAKGRFTISRDNAKTVSLQMDNLKPEDTGVYYCYSLATTVTPSWVNYWGQGTQVTVSS
notes: also called DLLBII104A3; not shown: C-terminal c-myc and His6 tags
B18: DLLBII102F08 (VHH)
VHH: EVQLVESGGGLVQTGDSLRLSCAASGSTFSNYRMGWFRQGPGKEREFVAAIGRNGQNTYYTDSVKGRFTVTRDNAKNMVYLQMNSLKPEDSAVYTCAASLRGWDTTRIDYEYWGQGTQVTVSS
notes: also called DLLBII102F8; not shown: C-terminal c-myc and His6 tags
B19: DLLBII107C03 (VHH)
VHH: EVQLVESGGGLVQPGGSLRLSCEVSGSIGSVSDMRWYRQAPGLQYELVARITSGSITDYSDSVKGRFTISRDNAKNTVYLQMNSLKPEDTAVYYCNADVQHSAWLKPLTYWGQGTQVTVSS
notes: also called DLLBII107C3; not shown: C-terminal c-myc and His6 tags
B20: DLLBII61F05 (VHH)
VHH: EVQLVESGGGLVQPGGSLRLSCTASGFTFSSYAMSWVRQAPGKGLEWVSFINKDGSDTGYADSVKGRFTISRDNAKNTMYLQMNSLKPEDTAVYFCETRTSRSPRPRGQGTQVTVSS
notes: also called DLLBII61F5; not shown: C-terminal c-myc and His6 tags
B21: DLLBII102G04 (VHH)
VHH: EVQLMESGGGLVQPGGSLRLSCAASGFTFSSYAMSWVRQAPGKGLEWVSRITSGGRTTYRDSVKGRFTISRDNSKNTLYLQMNSLKPEDTALYYCAKARGDIDVYTLSDSRGQGTQVTVSS
notes: also called DLLBII102G4; not shown: C-terminal c-myc and His6 tags
B22: DLLBII101H05 (VHH)
VHH: EVQLVESGGGSAQAGGSLRLSCAASGRTSSTYAMGWFRQAPGKEHEFVSAIGRGTGATSYGDSVKGRFTISRDNAKNTVYLQMNSLQLEDTGDYYCVAGRGFYHDYSSYEYRGQGTQVTVSS
notes: also called DLLBII101H5; not shown: C-terminal c-myc and His6 tags
B23: DLLBII95F02 (VHH)
VHH: EVQLVESGGGSVQAGGSLRLSCAASGRTFSSYAMGWFRQAPGKEREFVAAINWSGGYTYYADSVRGRFTISRDNAKNTVYLQMNSLKPEDTAVYYCAAPAPGSSGYEYDYWGQGTQVTVSS
notes: also called DLLBII95F2; not shown: C-terminal c-myc and His6 tags
B24: DLLBII104C04 (VHH)
VHH: EVQLVESGGGLVQAGGSLRLSCAAAGSTFSSYVMGWYRQAPGKQRELVAHISTRGITYYADSVKGRFTISRDNAKNTMYLQMNSLKPEDTAVYYCNTRRNFLSNYWGQGTQVTVSS
notes: also called DLLBII104C4; not shown: C-terminal c-myc and His6 tags
B25: DLLBII61F07 (VHH)
VHH: EVQLVESGGGLVQAGGSLRLSCAASGRTFSRYAMGWFRQAPGKEREFVAAINWSGGSTYYADSVKGRFTISRDNAKNTVYLQMNSLKPEDTAVYDCAASNYYSVYDDRPVMDYWGQGTQVTVSS
notes: also called DLLBII61F7; not shown: C-terminal c-myc and His6 tags
B26: DLLBII112A04 (VHH)
VHH: EVQLVESGGGLVQAGGSLRLSCAAFGRTPYGMGWFRQAPGKEREFVAAITSDGSTNYADSVKGRFTISRDNAKNAVSLQMNSLKPEDTAVYYCTAPYYSDFEGTTTEYDYWGQGTQVTVSS
notes: also called DLLBII112A4; not shown: C-terminal c-myc and His6 tags
B27: DLLBII58A11 (VHH)
VHH: EVQLVESGGGLVQAGGSLRLSCTTSERTVSRYSMGWFRQAPGKEREAVATISWSGDSTYYADSVKGRFTISRDNTKNTLYLQIDSLKPEDTAVYYCVAKPNLKYGSYWPPRGYDYWGQGTQVTVSS
notes: not shown: C-terminal c-myc and His6 tags
B28: DLLBII83G01 (VHH)
VHH: EVQLVESGGGLVQAGGSLRLSCAASGRTFSNYIMGWFRQAPGKEREFVAGISRYADYTGYADSVKGRFTISRDNVKNTVYLRMNSLKPDDTAVYYCAANEGYCSGYGCYEDSGQYDYWGQGTQVTVSS
notes: also called DLLBII83G1; not shown: C-terminal c-myc and His6 tags
B29: DLLBII47D01 (VHH)
VHH: EVQLVESGGGLVQPGGSLRLSCAASGFTFDDYAIGWFRQAPGKEREGVSCISSSGSTYYADSVKGRFTISRDNAKNTVYLQMNSLKPEDTAVYYCAIAGASSWCFPPGYWGQGTQVTVSS
notes: also called DLLBII47D1; not shown: C-terminal c-myc and His6 tags

target: T1, recombinant human DLL4 (human, UniProt Q9NR61 25-522); assay: ProteOn off-rate screen, periplasmic extract, hDLL4 on chip
T1 construct: R&D Systems C-terminally His-tagged extracellular domain; also called rhDLL4; hDLL4; not shown: C-terminal His tag
Procedure: (§1) In a first cycle, amino acid substitutions are introduced randomly in both framework (FW) and complementary determining regions (CDR) using the error-prone PCR method. […] After a polish step, PCR products are inserted via unique restriction sites into a vector designed to facilitate phage display of the VHH library. […] No selections on murine DLL4 are included as (conservation of) cross-reactivity is assessed at the screening level. Individual mutants are produced as recombinant protein using an expression vector derived from pUC119, which contains the LacZ promoter, a resistance gene for ampicillin, a multiple cloning site and an ompA leader sequence (pAX50). E. coli TG1 cells are transformed with the expression vector library and plated on agar plates (LB+Amp+2% glucose). Single colonies are picked from the agar plates and grown in 1 mL 96-deep-well plates. VHH expression is induced by adding IPTG (1 mM). Periplasmic extracts (in a volume of ˜80 uL) are prepared according to standard methods and screened for binding to recombinant human and mouse DII4 in a ProteOn (BioRad, Hercules, Calif., USA) off-rate assay. […] Periplasmic extract of affinity matured clones is diluted 1/10 and injected across the “analyte channels” A1-A6. An average off-rate is calculated of the wild type clones present in the plate and served as a reference to calculate off-rate improvements.

Row | Binder | fold (off-rate improvement over DLLBII101G08)
1 | B1 | 19 fold
2 | B2 | 20 fold
3 | B3 | 24 fold
4 | B4 | 26 fold
5 | B5 | 33 fold
6 | B6 | 30 fold
7 | B7 | 21 fold
8 | B8 | 23 fold
9 | B9 | 26 fold
10 | B10 | 31 fold

target: T2, mouse DLL4, full length, overexpressed on CHO or HEK293 cells (mouse, UniProt Q9JI71 27-686); assay: periplasmic extract; FMAT, Notch1/Fc on CHO-mDLL4
T2 construct: whole, on cells; also called CHO-mDLL4; CHO-mDII4
Excerpt: (§2) All calculations are based on the FL1_total signal which comprises the average of the fluorescence per well times the number of counts per well.

T2 sequence (Q9JI71 27-686): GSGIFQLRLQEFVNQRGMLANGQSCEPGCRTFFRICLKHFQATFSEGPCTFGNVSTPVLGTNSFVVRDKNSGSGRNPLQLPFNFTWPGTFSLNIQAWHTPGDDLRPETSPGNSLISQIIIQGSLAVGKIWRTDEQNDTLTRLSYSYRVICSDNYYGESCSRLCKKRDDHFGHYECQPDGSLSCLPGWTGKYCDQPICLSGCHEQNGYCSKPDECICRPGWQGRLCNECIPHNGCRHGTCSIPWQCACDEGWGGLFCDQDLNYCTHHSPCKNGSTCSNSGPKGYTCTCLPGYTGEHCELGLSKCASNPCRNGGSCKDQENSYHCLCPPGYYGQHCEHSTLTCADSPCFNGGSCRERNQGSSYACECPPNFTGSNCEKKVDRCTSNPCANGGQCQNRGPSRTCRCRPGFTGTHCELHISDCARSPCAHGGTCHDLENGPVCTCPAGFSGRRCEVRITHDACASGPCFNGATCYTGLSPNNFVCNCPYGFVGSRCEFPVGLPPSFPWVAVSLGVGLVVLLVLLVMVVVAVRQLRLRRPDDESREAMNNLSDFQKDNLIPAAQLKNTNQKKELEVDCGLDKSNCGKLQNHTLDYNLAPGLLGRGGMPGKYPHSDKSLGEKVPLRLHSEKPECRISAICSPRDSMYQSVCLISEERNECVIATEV

Row | Binder | % inhibition
11 | B11 | 97%
12 | B12 | 78%
13 | B13 | 82%
14 | B14 | 78%
15 | B15 | 75%
16 | B16 | 85%
17 | B17 | 83%
18 | B18 | 75%
19 | B19 | 80%
20 | B20 | 76%
21 | B21 | 82%
22 | B22 | 83%
23 | B23 | 71%
24 | B24 | 83%
25 | B25 | 77%
26 | B26 | 90%
27 | B27 | 73%
28 | B28 | 93%

target: T3, recombinant mouse DLL4 (mouse, UniProt Q9JI71 27-532); assay: ProteOn off-rate screen, periplasmic extract, mDLL4 on chip
T3 construct: extracellular domain; also called rmDLL4; mDLL4; not shown: C-terminal His tag
Procedure: as §1

T3 sequence (Q9JI71 27-532): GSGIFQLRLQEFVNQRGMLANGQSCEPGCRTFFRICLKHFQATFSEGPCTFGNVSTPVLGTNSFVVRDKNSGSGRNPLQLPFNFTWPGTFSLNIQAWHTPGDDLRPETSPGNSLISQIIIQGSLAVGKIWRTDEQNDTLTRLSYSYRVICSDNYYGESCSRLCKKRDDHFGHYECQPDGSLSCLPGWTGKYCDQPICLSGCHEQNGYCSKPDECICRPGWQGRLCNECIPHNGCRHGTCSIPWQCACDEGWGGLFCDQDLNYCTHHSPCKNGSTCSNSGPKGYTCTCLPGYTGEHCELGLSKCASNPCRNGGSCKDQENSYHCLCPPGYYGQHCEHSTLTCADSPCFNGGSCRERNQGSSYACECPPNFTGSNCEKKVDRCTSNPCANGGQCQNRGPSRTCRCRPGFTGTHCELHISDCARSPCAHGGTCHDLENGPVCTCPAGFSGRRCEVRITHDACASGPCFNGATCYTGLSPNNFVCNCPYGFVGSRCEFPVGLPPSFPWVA

Row | Binder | fold (off-rate improvement over DLLBII101G08)
29 | B1 | 18 fold
30 | B2 | 18 fold
31 | B3 | 19 fold
32 | B4 | 20 fold
33 | B5 | 27 fold
34 | B6 | 26 fold
35 | B7 | 24 fold
36 | B8 | 19 fold
37 | B9 | 26 fold
38 | B10 | 26 fold

target: T4, human DLL4, full length, overexpressed on CHO or HEK293 cells (human, UniProt Q9NR61 27-685); assay: periplasmic extract; FMAT, Notch1/Fc on CHO-hDLL4
T4 construct: also called CHO-hDLL4; CHO-hDII4
Excerpt: as §2

Row | Binder | % inhibition
39 | B11 | 72%
40 | B12 | 85%
41 | B13 | 71%
42 | B14 | 86%
43 | B15 | 87%
44 | B16 | 80%
45 | B17 | 86%
46 | B18 | 85%
47 | B19 | 75%
48 | B29 | 87%
49 | B20 | 74%
50 | B21 | 86%
51 | B23 | 81%
52 | B24 | 87%
53 | B25 | 79%
54 | B26 | 75%
55 | B27 | 95%
56 | B28 | 87%
